Experimental data as given in patent US20110257371A1 (Teva, published 2011).
Where no end group is shown, it is not given here. The star is where a group is joined. Biotin = O=C1N[C@H]2[C@H](CS[C@H]2CCCCC(=O)*)N1

T1: K35A
T1 sequence (peptide, N-terminal biotin (p-0192)): NNFVPTNVGSAAF

T2: V32A
T2 sequence (peptide, N-terminal biotin (p-0192)): NNFVPTNAGSKAF

T3: S34A
T3 sequence (peptide, N-terminal biotin (p-0192)): NNFVPTNVGAKAF

T4: F37A (ends and bridges not checked)
T4 peptide: Biotin-NNFVPTNVGSKAA

T5: G33A (ends and bridges not checked)
T5 peptide: Biotin-NNFVPTNVASKAF

T6: human α-CGRP (human, not fully specified; C-terminal amide (CONH2) as printed; N-biotinylated in the Biacore assays)
T6 construct: Full-length 37-residue peptide; also called α-Hu; α-human
T6 peptide: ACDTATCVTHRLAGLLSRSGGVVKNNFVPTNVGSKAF

T7: rat β-CGRP (rat, not fully specified; C-terminal amide (CONH2) as printed; N-biotin on chip)
T7 construct: also called β-rat
T7 peptide: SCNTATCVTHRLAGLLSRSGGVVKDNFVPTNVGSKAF

T8: human β-CGRP (human, not fully specified; C-terminal amide (CONH2) as printed; N-biotin on chip)
T8 construct: also called β-human
T8 peptide: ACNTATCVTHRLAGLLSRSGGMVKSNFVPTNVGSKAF

T9: rat α-CGRP (rat, not fully specified; C-terminal amide (CONH2) as printed; N-biotinylated in the Biacore assays)
T9 construct: also called α-Rat; α-rat
T9 peptide: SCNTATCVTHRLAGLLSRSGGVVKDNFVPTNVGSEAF


Assays:
K35A = target: T1, K35A; assay: Biacore alanine scan, 25 °C, N-biotinylated fragment on SA chip, G1 Fab titrated; against the wild-type 25-37 fragment
V32A = target: T2, V32A; assay: as above
S34A = target: T3, S34A; assay: as above
F37A = target: T4, F37A; assay: as above
Method: (§1) Interaction analysis was conducted at 25° C. on a Biacore 3000™ system equipped with streptavidin-coated (SA) sensor chips (Biacore AB, Uppsala, Sweden) using a standard Biacore running buffer (HBS-P). […] Each amino acid between position 27-37 was then mutated individually to alanine and expressed the fold loss in affinity compared to the wild-type fragment. […] Fab fragments were titrated over the chip using 1 μM as the top concentration of a two-fold dilution series. Association and dissociation phases were monitored at 100 μl/min for 1 minute and 5 minutes respectively. Surfaces were regenerated with a mixture of 35% ethanol+25mM NaOH+0.5M NaCl.

G33A = target: T5, G33A; assay: as above
Method: as §1

human α-CGRP [1] = target: T6, human α-CGRP; assay: Biacore, ratio of KD at 25 C, reference rat α-CGRP
human α-CGRP [2] = target: T6, human α-CGRP; assay: Biacore, N-biotin-CGRP on chip, 37 C
rat β-CGRP = target: T7, rat β-CGRP; assay: Biacore, N-biotin-CGRP on chip, 37 C
human β-CGRP = target: T8, human β-CGRP; assay: Biacore, N-biotin-CGRP on chip, 37 C
rat α-CGRP [3] = target: T9, rat α-CGRP; assay: Biacore, N-biotin-CGRP on chip, 37 C
human α-CGRP [4] = target: T6, human α-CGRP; assay: Biacore, N-biotin-CGRP on chip, 25 C
rat α-CGRP [5] = target: T9, rat α-CGRP; assay: Biacore, N-biotin-CGRP on chip, 25 C

Row | Binder | Fold loss in affinity (K35A) | Fold loss in affinity (V32A) | Fold loss in affinity (S34A) | Fold loss in affinity (F37A) | Fold loss in affinity (G33A) | fold more potent than for rat α-CGRP (human α-CGRP [1]) | T1/2 (human α-CGRP [2]) | T1/2 (rat β-CGRP) | T1/2 (human β-CGRP) | T1/2 (rat α-CGRP [3]) | T1/2 (human α-CGRP [4]) | T1/2 (rat α-CGRP [5])
1 | Fab fragment of antibody G1 (Fab, V domains shown, also called Purified Fab fragments of antibody G1) VH: EVQLVESGGGLVQPGGSLRLSCAASGFTFSNYWISWVRQAPGKGLEWVAEIRSESDASATHYAEAVKGRFTISRDNAKNSLYLQMNSLRAEDTAVYYCLAYFDYGLAIQNYWGQGTLVTVSS VL: EIVLTQSPATLSLSPGERATLSCKASKRVTTYVSWYQQKPGQAPRLLIYGASNRYLGIPARFSGSGSGTDFTLTISSLEPEDFAVYYCSQSYNYPYTFGQGTKLEIK | 8.1 fold | 6.1 fold | 10.9 fold | 339 fold | 504 fold | – | – | – | – | – | – | –
2 | antibody G1 (antibody, human IgG2, kappa, V domains shown, Humanized IgG2 delta-a monoclonal derived from muMAb7E9; heavy chain entry includes the modified IgG2 constant region; also called anti-CGRP antibody G1) VH: EVQLVESGGGLVQPGGSLRLSCAASGFTFSNYWISWVRQAPGKGLEWVAEIRSESDASATHYAEAVKGRFTISRDNAKNSLYLQMNSLRAEDTAVYYCLAYFDYGLAIQNYWGQGTLVTVSS VL: EIVLTQSPATLSLSPGERATLSCKASKRVTTYVSWYQQKPGQAPRLLIYGASNRYLGIPARFSGSGSGTDFTLTISSLEPEDFAVYYCSQSYNYPYTFGQGTKLEIKR | – | – | – | – | – | 40 fold | 5.3 h | 2.45 h | 2.76 h | 0.48 h | 24.7 h | 3.12 h
